# Source: PMC9093745, “Carbohydrate Metabolism in Bacteria: Alternative Specificities in ADP-Glucose Pyrophosphorylases Open Novel Metabolic Scenarios and Biotechnological Tools” (Frontiers in Microbiology, 2022)
# B1: G. stearothermophilus ADP-Glc PPase GlgC/GlgD (Geobacillus stearothermophilus) (protein)
# chain: MKKKCIAMLLAGGQGSRLRSLTTNIAKPAVPFGGKYRIIDFTLSNCTNSGIDTVGVLTQYQPLLLHSYIGIGSAWDLDRRNGGVTVLPPYSVSSGVKWYEGTANAVYQNINYIEQYNPDYVLVLSGDHIYKMDYQHMLDYHIAKQADVTISVIEVPWEEASRFGIMNTNEEMEIVEFAEKPAEPKSNLASMGIYIFNWPLLKQYLQIDNANPHSSHDFGKDVIPMLLREKKRPFAYPFEGYWKDVGTVKSLWEANMDLLDENNELDLFDRSWRIYSVNPNQPPQYISPEAEVSDSLVNEGCVVEGTVERSVLFQGVRIGKGAVVKESVIMPGAAVSEGAYVERAIVTPDSIIPPHSSVCPEDADDVVLVTAEWLKQSNEETARKDEA
# Assays:
# purified protein [1] = substrate: Nc1ncnc2c1ncn2[C@@H]1O[C@H](COP(=O)(O)OP(=O)(O)OP(=O)(O)O)[C@@H](O)[C@H]1O; assay: purified protein; conditions: 1 mM GlcN-1P co-substrate, Mg2+, pH 8.0, 37°C
# purified protein [2] = substrate: N[C@H]1[C@@H](OP(=O)(O)O)O[C@H](CO)[C@@H](O)[C@@H]1O; assay: purified protein; conditions: ATP co-substrate, Mg2+, pH 8.0, 37°C, no activator
protein,measurement,setting,value
B1,Km,purified protein [1],210 µM
same,Km,purified protein [2],400 µM
